In test [1] the target is iota carbonic anhydrase from Thalassiosira pseudonana (tpι-CA), full-length four-domain recombinant protein (Thalassiosira pseudonana). The test can be described thus: cross-linking; 0.01% glutaraldehyde, 20 mM Na2HPO4 pH 8.0, 10 to 15 min at room temperature, then SDS-PAGE and Western blot.
The target is the same in test [2]. As to the kind of experiment: SEC; Superdex Increase S200 10 x 300 at 4 °C, samples loaded at 50 µM to 200 µM; Benzonase treatment where mentioned.
The target is the same in test [3]. The test can be described thus: native MS; ESI-MS under non-denaturing conditions, 500 mM ammonium acetate pH 8, 8 µM protein, Q-ToF (Synapt G1), source 20 °C.
The target is the same in test [4]. The test can be described thus: SEC-SAXS; SWING beamline (SOLEIL), Agilent Bio SEC-5 500 Å column, 15 °C; molecular mass from SAXS-MoW.
The target of test [5] is tpι-CA domain variant ∆1 (composed of domain 1 only) (Thalassiosira pseudonana). As to the kind of experiment: DOSY-NMR; 30 to 80 µM protein, 27 mM Tris, 45 mM NaCl, 10% D2O, pH 8, 298 K, 600 MHz; experimental Dt and Rh compared with HYDROPRO values of the models.
Test [6] has as its target tpι-CA domain variant ∆1-2 (composed of domains 1 and 2) (Thalassiosira pseudonana). The test is described as above.

The record followed here is publication PMC8395977.

Regarding “iota carbonic anhydrase from Thalassiosira pseudonana (tpι-CA), full-length four-domain recombinant protein (enzyme)”, the stoichiometry N in test [1], in test [2], in test [3] and in test [4] was 4 throughout.

For the substance “tpι-CA domain variant ∆1 (composed of domain 1 only) (domain or fragment)”, in test [5], the stoichiometry N is 2.

Take “tpι-CA domain variant ∆1-2 (composed of domains 1 and 2) (domain or fragment)”: the stoichiometry N in test [6] was 4.
